Results published in the supplement of paper PMC10567573.

B1: MNAT1 (parent)
chain: LEEALYEYQPLQIETYGPHVPELE
B2: NR2F2 (parent)
chain: VAHVESLQEKSQCALEEYVRSQYP

Variants of: B1
Assay: protein stability index of a GFP-peptide fusion (GPS, HEK-293T) (PSI 1-6); higher = more stable
Details: c terminus: a fixed tail appended
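Note: lentivirally expressed fusions sorted by FACS into six bins by GFP to DsRed ratio, PSI derived from sequencing read proportions per bin multiplied by bin number.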

Protein stability index: each site, then its substitutions
L5: D 5.12; P 5.19; I 4.87; M 4.64; F 4.33; N 4.81; S 4.59; V 4.64; H 4.96; W 3.89; A 4.97; Q 5.38; K 5.06; E 4.58; Y 4.46; R 4.32; C 4.71; G 4.8; T 4.9
E3: V 1.74; P 4.05; H 3.16; F 3.39; M 2.19; N 3.67; A 2.43; I 2.13; Y 2.04; G 3.41; W 1.45; R 2.79; D 3.19; L 2; Q 3; C 2.42; S 3.63; T 3.16; K 2.64
L1: D 4.8; W 4; N 4.72; R 4.12; P 4.88; H 4.98; I 3.45; S 5.15; Y 4.45; K 4.81; C 4.72; M 3.18; Q 5.08; G 5.15; T 5.14; A 5.28; V 4.15; F 3.81; E 5.1
A4: H 4.59; D 4.84; R 4.81; E 4.56; F 3.1; V 1.91; Y 3.51; N 4.61; K 4.33; M 3.72; G 4.4; C 3.81; P 4.28; L 3.57; S 4.67; Q 4.89; W 2.96; T 4.27; I 2.88
Y6: A 2.3; G 3.43; T 3.56; R 2.27; H 3.11; P 5.47; C 2.61; W 2.39; L 3.43; E 2.74; I 2.58; N 3.7; K 2.46; M 3; V 3.33; D 4.36; F 2.8; S 2.41; Q 2.81
E2: S 2.4; K 2.47; R 3.28; P 3.7; L 2.96; C 3.03; W 2.34; D 3.89; N 2.4; Y 1.71; H 1.73; M 2.71; I 2.67; Q 1.71; F 1.71; A 2.26; V 2.55; G 2.24; T 2.2
E7: Q 2.28; L 2.25; G 3.53; D 3.92; R 1.73; K 1.87; S 2.76; P 2.71; T 2.68; V 1.73; I 2.44; A 2.19; F 1.87; H 2.11; M 2.19; W 2.1; C 1.92; N 2.73

Variants of: B2
Assay: as above
Details: c terminus: a fixed tail appended

Protein stability index of substitutions, site by site:
E9: V 2.72; L 2.64; N 3.05; P 2.68; R 2.53; Y 2.77; I 1.83; T 3.11; F 2.13
R20: D 4.71; G 4.17; L 2.67; V 3.72; M 3.19; Y 3.26; S 3.65; T 3.72; H 3.86
E5: H 3.02; F 1.92; S 2.53; V 2.48; Q 3.52; R 2.63; W 2.14; I 2.41
Y18: E 4.7; F 3.33; C 3.51; L 3.01; P 4.43; W 3.66; K 3.94; I 3.55; H 4.2
Y23: Q 4.25; C 4.13; H 3.88; F 3.43; K 3.98; T 4.01; N 4.74; D 4.53; L 3.75; V 3.76; A 4.1
L15: F 3.48; I 3.89; R 4.37; V 4.51; N 4.42; Y 4.04
V4: I 3.45; C 3.81; R 4.06; A 4.11; P 3.54; W 3.28; E 4.37
Q22: H 3.56; I 2.6; R 3.05; K 3.87; E 4.31; L 3.17; F 2.44; M 2.87
Q12: D 4.32; I 2.49; W 2.64; C 2.45; V 2.83; R 3.77; K 3.76; H 2.88
Q8: H 3.49; D 3.71; N 3.75; Y 2.73; G 3.56; A 3.03; C 2.99; F 2.48; K 3.88; V 3.02; R 3.68
K10: W 2.96; P 3.37; L 3.07; V 3.49; N 3.98; D 4.32; Y 2.63; I 2.58; S 3.76
S6: Q 3.69; P 2.94; R 3.67; V 3.33; C 3.48; Y 2.98; T 3.55; M 3.07; A 4.04
C13: Y 3.83; A 4.7; V 4.05; S 4.24; F 3.58; P 3.92; D 4.36; E 4.91
A14: C 3.41; N 4.22; Y 3.19; V 3.83; G 3.6; P 4.11; W 2.5
H3: M 3.36; A 3.48; E 4.95; L 2.38; V 2.83
P24: C 3.14; V 3.06; N 3.94; M 3.22; W 2.45; R 4.01; A 3.73; S 3.47
V1: M 3.89; T 4.19; D 4.15; N 4.01; C 2.66; K 3.66; P 4.13; L 3.5
S11: N 3.88; K 3.41; T 3.53; R 3.12; L 3.2; H 3.59; Q 2.97; E 4.36; I 2.8; V 2.48
V19: A 3.49; E 5.1; Q 4.03; R 3.85; H 4.24; K 4.04
L7: E 4.77; D 4.29; Q 4.08; W 3.03; N 4.68; P 4.43; K 3.98; M 3.95; V 4.05; A 3.92; I 3.82; T 4.13
A2: L 2.85; R 3.55; N 3.1; Q 3.33; W 2.29; C 2.54; S 3.87; P 3.76; T 3.73; E 4.27
E16: W 2.23; N 3.63; T 3.29; P 3.74; S 3.37; V 3.36; D 3.62; R 3.65; I 3.7; A 3.59; G 3.21
E17: C 2.89; D 3.44; L 2.49; N 3.08; W 2.11; H 2.76; P 3.5; T 3.62
S21: R 3.13; L 3.46; Q 3.53; W 2.24; Y 2.89
